In patent US20240116999A1, “CONFORMATIONALLY CONSTRAINED GLUCAGON ANALOGUES AND THEIR USE IN GLUCAGON-SINGLE CHAIN INSULIN FUSION PROTEINS” (THE TRUSTEES OF INDIANA UNIVERSITY, priority 2021, published 2024):
Bridge positions count the residues as written; N and C are the ends. Square brackets hold non-standard residues; d marks the D form. Orn = NCCC[C@H](N)C(=O)O

Tests used:
STZ (diabetic) rats = test: In vivo assay in STZ (diabetic) rats, subcutaneous injection; design: species or system rat; conditions: for effect on blood glucose levels: FIG. 17, STZ rats, 12 nmol/kg per rat
Text: FIG. 17 presents an in vivo assay done in STZ rats.
FIG. 18 presents another in vivo assay done in STZ rats. The four fusion proteins used in FIG. 17 were subcutaneously injected at doses of 23.8 nmol/kg per rat. […] In this study both fusion proteins carrying an active SCI analogue had similar activities.

[1] = Thioflavin T (ThT) fibrillation assay; type: physicochemical; conditions: FIG. 15; month-long assay, 100 μM, pH 7.4, 37° C.
Procedure: Fibrillation Assays. We employed an automated plate-based fluorescent device to monitor the time course of peptide fibrillation using a Thioflavin T (ThT) assay. This assay is based on the THT fluorescence emission at 480 nm upon binding to mature fibrils when excited at 440 nm. The assay was performed by preparing stock solutions of the fusion protein and the individual peptides in either NaCl 0.9% (pH 2.5) or PBS (pH 7.4). Our experience has identified 100-μM final concentration as optimal fibrillation conditions for glucagon analogues. Stock solutions were diluted with NaCl 0.9% or 1X PBS buffer, pH adjusted (with 1N HCl or 1N NaOH) mixed with Thioflavin-T (THT) at a final concentration of 16 μM, centrifuged, and 250 μl of the sample were placed on a 96-well plate with 4-10 technical replicates. Measurements were done every 15 minutes and the sample agitated at 1096 cpm at 37° C. on a Synergy H1 microplate reader (BioTek, Winooski, VT). The lag time, defined as the time-point at which fibrillation starts its exponential phase, was considered as the point at which fluorescence was 3 times the background signal.

B1: HSQGTFTSDYSOKLDSEOAQDFVQWLMNTEEKFVNQHLCGSHLVEALYLVCGEOGFFYTPETEEGPOOGILEQCCQSICSLEQLENYCN (protein)
chain: HSQGTFTSDYS[Orn]KLDSE[Orn]AQDFVQWLMNTEEKFVNQHLCGSHLVEALYLVCGE[Orn]GFFYTPETEEGP[Orn][Orn]GILEQCCQSICSLEQLENYCN
modifications: lactam 13-17; ends not checked
notes: fusion protein made by trypsin-mediated ligation
With B1 the “effect on blood glucose levels” value (STZ (diabetic) rats) was “slight rise in blood glucose levels” and the “effect on blood-glucose concentrations” value (STZ (diabetic) rats; FIG. 18, STZ rats, 23.8 nmol/kg per rat) was “didn't cause an increase in blood-glucose concentrations”.

B2: HSQGTFTSDYSOKLDSEOAQDFVQWLMNTEEKFVNQHLCGSHLVEALYLVCGEOGFFYTPETEEGPOOGIVEQCCQSICSLEQLENYCN (protein)
chain: HSQGTFTSDYSXKLDSEXAQDFVQWLMNTEEKFVNQHLCGSHLVEALYLVCGEXGFFYTPETEEGPXXGIVEQCCQSICSLEQLENYCN
modifications: K13-E17 lactam; ornithine residues; glucagon/insulin fusion peptide analog; (12)..(12) Xaa at position 12 is ornithine; (18)..(18) Xaa at position 18 is ornithine; (54)..(54) Xaa at position 54 is ornithine; (67)..(67) Xaa at position 67 is ornithine; (68)..(68) Xaa at position 68 is ornithine
notes: as for B1
In the case of B2, the “effect on blood glucose levels” value (STZ (diabetic) rats) is reported as “higher activity than the corresponding analogue containing an active SCI and inactive glucagon”, the “activity at 23.8 nmol/kg relative to the 12-nmol/kg rat doses” value (STZ (diabetic) rats; FIG. 18 vs FIG. 17, STZ rats) is reported as “stayed in a similar range” and the “formation of amyloid-like fibrils” value [1] is reported as “did not form amyloid-like fibrils within the duration of the experiment”.
